Assay [1] addresses T1, human CD3 (on the human T-cell line Jurkat or on human T-cells) (human, UniProt P09693 23-182; P20963 22-164). Briefly: FACS binding; Fig 1B. (In general: A flow cytometer gives signals particle by particle.)
Assay [2] deals with T2, HSC-F (cynomolgus monkey, UniProt Q95LI8 22-171; Q95LI7 23-181).
T2 chain: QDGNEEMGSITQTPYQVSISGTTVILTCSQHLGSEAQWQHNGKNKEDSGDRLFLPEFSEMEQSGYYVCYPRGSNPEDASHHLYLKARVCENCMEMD
In words: FACS binding.

Assay [3] concerns the target T1, human CD3 (on the human T-cell line …). In words: FACS binding.
The target is the same in assay [4]. Briefly: FACS binding; Fig 1A.
Assay [5] has the same target. Briefly: FACS binding. This is another data set of the same source.
Assay [6] has as its target T2, HSC-F. In words: FACS binding; Fig 2B.
For assay [7], the target named is T2, HSC-F. Briefly: FACS binding; Fig 2A.
Assay [8] addresses T2, HSC-F. Briefly: FACS binding; second row printed H4L1; graph legend indicates H4L3.
Assay [9] addresses T2, HSC-F. Briefly: FACS binding.

Numbering of substitutions follows the chain as printed.

T1 sequence (chain, as listed by the source, chain 1 of 4): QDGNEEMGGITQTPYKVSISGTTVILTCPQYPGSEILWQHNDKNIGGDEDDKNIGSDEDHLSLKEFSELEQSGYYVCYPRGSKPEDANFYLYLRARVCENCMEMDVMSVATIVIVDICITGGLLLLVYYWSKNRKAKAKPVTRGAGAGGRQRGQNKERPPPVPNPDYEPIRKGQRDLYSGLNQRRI
T1 sequence (chain, as listed by the source, chain 2 of 4): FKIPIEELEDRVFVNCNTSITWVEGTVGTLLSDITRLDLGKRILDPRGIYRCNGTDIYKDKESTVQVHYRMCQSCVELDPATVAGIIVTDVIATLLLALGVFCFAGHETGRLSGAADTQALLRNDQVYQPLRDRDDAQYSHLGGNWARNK
T1 sequence (P09693 23-182, chain 3 of 4): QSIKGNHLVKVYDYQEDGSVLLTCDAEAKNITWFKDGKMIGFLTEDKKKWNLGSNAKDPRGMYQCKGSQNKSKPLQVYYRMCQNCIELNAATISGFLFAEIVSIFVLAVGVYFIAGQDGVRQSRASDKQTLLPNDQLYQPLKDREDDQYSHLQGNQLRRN
T1 sequence (P20963 22-164, chain 4 of 4): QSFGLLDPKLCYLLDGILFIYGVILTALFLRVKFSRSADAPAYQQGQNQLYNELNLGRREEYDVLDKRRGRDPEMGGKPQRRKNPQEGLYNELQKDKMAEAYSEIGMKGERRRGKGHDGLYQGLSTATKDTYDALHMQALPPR

B1: bsIgG1 CD3×HER2 (bispecific antibody, V domains shown)
VH 1: EVKLLESGGGLVQPKGSLKLSCAASGFTFNTYAMNWVRQAPGKGLEWVARIRSKYNNYATYYADSVKDRFTISRDDSQSILYLQMNNLKTEDTAMYYCVRHGNFGNSYVSWFAYWGQGTLVTVSA
VL 1: QAVVTQESALTTSPGETVTLTCRSSTGAVTTSNYANWVQEKPDHLFTGLIGGTNKRAPGVPARFSGSLIGDKAALTITGAQTEDEAIYFCALWYSNLWVFGGGTKLTVL
VH 2: QVQLVQSGAEVKKPGASVKVSCKASGYTFTNYGISWVRQAPGQGLEWMGWLSAYSGNTIYAQKLQGRVTMTTDTSTTTAYMELRSLRSDDTAVYYCARDRIVVRPDYFDYWGQGTLVTVSS
VL 2: EIVLTQSPATLSLSPGERATLSCRASQSVSSYLAWYQQKPGQAPRLLIYDASNRATGIPARFSGSGSGTDFTLTISSLEPEDFAVYYCQQRSNWPRTFGQGTKVEIK
In the case of B1, in assay [1], the EC50 (as a rule, the concentration at which the effect is half-maximal) amounted to 0.68 µg/mL.

B2: IgG1-huCD3-H4L1-LFLEDA (antibody, V domains shown)
VH: B1 VH 1 with L5V, Q13K, K15G, G16R, K19R, Q78K, N87S, L120M, A125S
VL: not shown
B2: the results for the EC50 (with HSC-F [2]; in assay [3]) were 0.03 µg/mL and 0.06 µg/mL, respectively.

B3: IgG1-CD3-LFLEDA (parental chimeric CD3 antibody with non-activating LFLEDA mutations) (antibody, V domains shown)
VH: B1 VH 1
VL: B1 VL 1
In the case of B3, the EC50 came to 0.08 µg/mL in assay [4], 0.18 µg/mL in [5], 0.07 µg/mL in assay [1] and 0.27 µg/mL in assay [3].

B4: bsIgG1 huCD3-H3L1xHER2-LFLEDA (bispecific antibody, V domains shown)
VH 1: B1 VH 1 with L5V, Q13K, K15G, G16R, K19R, Q78K, N87S, A125S
VL 1: not shown
VH 2: B1 VH 2
VL 2: B1 VL 2
In the assay with HSC-F [6], B4 yielded an EC50 of 3.54 µg/mL.

B5: IgG1-huCD3-H4L1 (antibody, V domains shown)
VH: B1 VH 1 with L5V, Q13K, K15G, G16R, K19R, Q78K, N87S, L120M, A125S
VL: not shown
As to B5, the EC50 turned out to be 0.26 µg/mL in the assay with HSC-F [7] and 0.05 µg/mL in assay [4].

B6: IgG1-huCD3-H3L3-LFLEDA (antibody, V domains shown)
VH: B1 VH 1 with L5V, Q13K, K15G, G16R, K19R, Q78K, N87S, A125S
VL: QAVVTQEPSFSVSPGGTVTLTCRSSTGAVTTSNYANWVQQTPGQAFRGLIGGTNKRAPGVPARFSGSILGNKAALTITGAQADDESDYYCALWYSNLWVFGGGTKLTVL
Turning to B6, the EC50 is 0.03 µg/mL with HSC-F [2] and 0.08 µg/mL in [3].

B7: IgG1-huCD3-H1L2 (antibody, V domains shown)
VH: B1 VH 1 with L5V, K15G, K19R, Q78K, I80S, A125S
VL: B6 VL with D87I, Y89F
For the molecule B7, the results for the EC50 (in the assay with HSC-F [7]; in assay [4]) were 0.31 µg/mL and 0.08 µg/mL, respectively.

B8: IgG1-huCD3-H1L3-LFLEDA (antibody, V domains shown)
VH: B1 VH 1 with L5V, K15G, K19R, Q78K, I80S, A125S
VL: B6 VL
With B8, the EC50 with HSC-F [2] is 0.03 µg/mL; in assay [3], 0.11 µg/mL.

B9: IgG1-huCD3-H4L3-LFLEDA (antibody, V domains shown)
VH: B1 VH 1 with L5V, Q13K, K15G, G16R, K19R, Q78K, N87S, L120M, A125S
VL: B6 VL
In the case of B9, the EC50 in the assay with HSC-F [2] came to 0.02 µg/mL; in [3], 0.08 µg/mL.

B10: bsIgG1 huCD3-H3L1×HER2-LFLEDA (bispecific antibody, V domains shown)
VH 1: B1 VH 1 with L5V, Q13K, K15G, G16R, K19R, Q78K, N87S, A125S
VL 1: not shown
VH 2: B1 VH 2
VL 2: B1 VL 2
Take B10: the EC50 in assay [5] is 0.64 µg/mL; in assay [1], 0.28 µg/mL.

B11: IgG1-huCD3-H1L3 (antibody, V domains shown)
VH: B1 VH 1 with L5V, K15G, K19R, Q78K, I80S, A125S
VL: B6 VL
On to B11, for which the EC50 came out at 0.28 µg/mL with HSC-F [7] and 0.06 µg/mL in assay [4].

B12: IgG1-huCD3-H3L1-LFLEDA (antibody, V domains shown)
VH: B1 VH 1 with L5V, Q13K, K15G, G16R, K19R, Q78K, N87S, A125S
VL: not shown
With B12, the EC50 with HSC-F [7] worked out at 0.19 µg/mL; with HSC-F [6], 0.3 µg/mL; with HSC-F [2] it was 0.04 µg/mL; in assay [4] it was 0.04 µg/mL; in assay [1] it was 0.04 µg/mL; in assay [3], 0.1 µg/mL.

B13: bsIgG1-huCD3-H4L1xHER2-LFLEDA (bispecific antibody, V domains shown)
VH 1: B1 VH 1 with L5V, Q13K, K15G, G16R, K19R, Q78K, N87S, L120M, A125S
VL 1: B6 VL
VH 2: B1 VH 2
VL 2: B1 VL 2
Molecule B13 registered an EC50 with HSC-F [8] of 0.24 µg/mL.

B14: bsIgG1 CD3xHER2-LFLEDA (bispecific antibody, V domains shown)
VH 1: B1 VH 1
VL 1: B1 VL 1
VH 2: B1 VH 2
VL 2: B1 VL 2
Turning to B14, the EC50 with HSC-F [6] came to 4.46 µg/mL.

B15: IgG1-CD3-LFLEDA (antibody, V domains shown)
VH: B1 VH 1
VL: B1 VL 1
B15: the EC50 in the assay with HSC-F [7] is 0.3 µg/mL; in the assay with HSC-F [6], 0.47 µg/mL; in the assay with HSC-F [2] it was 0.06 µg/mL; with HSC-F [9], 0.06 µg/mL.

B16: IgG1-huCD3-H3L3 (antibody, V domains shown)
VH: B1 VH 1 with L5V, Q13K, K15G, G16R, K19R, Q78K, N87S, A125S
VL: B6 VL
For B16, the EC50 with HSC-F [7] was found to be 0.11 µg/mL; in assay [4], 0.02 µg/mL.

Source of the values: US20160168247A1 (published 2016).
